The text below walks through data of article PMC3836737, “Brd4 Is Displaced from HPV Replication Factories as They Expand and Amplify Viral DNA” (PLoS Pathogens, 2013).

This assay deals with T1, Purified FLAG-tagged Brd4 (UniProt O60885 1-1362).
T1 construct: source: purified, described previously [13]
Put plainly: pull-down. To be noted: one partner purified.

B1: HPV16 E2 I73L (natural protein)
chain: METLCQRLNVCQDKILTHYENDSTDLRDHIDYWKHMRLECAIYYKAREMGFKHINHQVVPTLAVSKNKALQALELQLTLETIYNSQYSNEKWTLQDVSLEVYLTAPTGCIKKHGYTVEVQFDGDICNTMHYTNWTHIYICEEASVTVVEGQVDYYGLYYVHEGIRTYFVQFKDDAEKYSKNKVWEVHAGGQVILCPTSVFSSNEVSSPEIIRQHLANHPAATHTKAVALGTEETQTTIQRPRSEPDTGNPCHTTKLLHRDSVDSAPILTAFNSSHKGRINCNSNTTPIVHLKGDANTLKCLRYRFKKHCTLYTAVSSTWHWTGHNVKHKSAIVTLTYDSEWQRDQFLSQVKIPKTITVSTGFMSI
modifications: 35S-labeled
notes: source: in vitro translated (TNT Coupled Reticulocyte Lysate System, Promega), 35S-labeled
Consider B1, for which the “percent of wildtype E2 binding” value was < 20 % of wildtype E2 binding.

B2: HPV16 E2 R37K (natural protein)
chain: METLCQRLNVCQDKILTHYENDSTDLRDHIDYWKHMKLECAIYYKAREMGFKHINHQVVPTLAVSKNKALQAIELQLTLETIYNSQYSNEKWTLQDVSLEVYLTAPTGCIKKHGYTVEVQFDGDICNTMHYTNWTHIYICEEASVTVVEGQVDYYGLYYVHEGIRTYFVQFKDDAEKYSKNKVWEVHAGGQVILCPTSVFSSNEVSSPEIIRQHLANHPAATHTKAVALGTEETQTTIQRPRSEPDTGNPCHTTKLLHRDSVDSAPILTAFNSSHKGRINCNSNTTPIVHLKGDANTLKCLRYRFKKHCTLYTAVSSTWHWTGHNVKHKSAIVTLTYDSEWQRDQFLSQVKIPKTITVSTGFMSI
modifications: 35S-labeled
notes: as for B1
For B2, the “percent of wildtype E2 binding” value was < 20 % of wildtype E2 binding.
